Assay results: patent US10139419B2, “Methods for detecting Aβ oligomers” (SYSTEM OF SYSTEMS ANALYTICS, INC., priority 2014, dated 2018)
Bridge positions count the residues as written; N and C are the ends. Square brackets hold non-standard residues; d marks the D form. Ends that are not written are not given here. * marks the point of attachment. FITC = O=C1OC2(c3ccc(O)cc3Oc3cc(O)ccc32)c2ccc(NC(=S)*)cc21; Ahx = NCCCCCC(=O)O

Tests used:
[1] = target: T1, synthetic Aβ oligomer (Homo sapiens, UniProt P05067); experiment: Fluorescence detection assay of synthetic Aβ oligomer spiked into human CSF; type: binding; conditions: 10 mM HEPES pH 7.0; 0.005% NP-40; 10% normal human cerebrospinal fluid; 70 nM pyrenated peptide; 37° C.
T1 construct: The monomers can comprise one or more of Aβ3-42, Aβ37, Aβ38, Aβ39, Aβ40 and Aβ42; host or cells: synthetic peptide oligomer
T1 sequence (P05067 672-713 limits assumed): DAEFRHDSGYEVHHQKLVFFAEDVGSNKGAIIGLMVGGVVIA
Procedure: Samples of CSF from a normal human subject are spiked with different concentrations of synthetic Aβ oligomer, and subjected to fluorescence detection assay using peptide probe AD315 (SEQ ID NO:65). The detection is performed in an assay with the following conditions: 10 mM HEPES buffer at pH 7.0; 0.005% NP-40; 10% normal human cerebrospinal fluid; 70 nM pyrenated peptide; and 37° C. incubation.

[2] = target: T2, Aβ42 oligomer (Homo sapiens, UniProt P05067); experiment: Fluorescent anisotropy versus Aβ42 oligomer concentration; type: binding
T2 sequence (P05067 672-713 limits assumed): as above

[3] = target: T2, Aβ42 oligomer; experiment: Streptavidin bead binding assay with gel electrophoresis detection; conditions: column 4
Procedure: An assay is performed to analyze peptide probe binding to Aβ42 oligomer. The peptide probe is the same as the probe in EXAMPLE 8. Five samples are analyzed: (1) Aβ42 biotinylated oligomer as a positive control; (2) Aβ42 biotinylated oligomer bound to a bead via streptavidin; (3) peptide positive control; (4) peptide probe bound to Aβ42 biotinylated oligomer bound to a bead via streptavidin; and (5) peptide probe bound to a bead via streptavidin. Detection was by gel electrophoresis.

[4] = target: T3, Aβ oligomer (Homo sapiens, UniProt P05067); experiment: Peptide Linked Immunosorbent Assay (PLISA) compared with ELISA; type: binding; conditions: ELISA with Aβ antibody 6E10 labeled with horse radish peroxidase
T3 sequence (P05067 672-713 limits assumed): as above
From the text: FIG. 7 depicts different formats for a PLISA as described herein. PLISA (A) depicts a sandwich format in which a target oligomer, such as an Aβ oligomer (SDS Oligo), binds to both surface-bound peptide probe (peptide) and peptide probe tagged with a label (Tag). The complex is detected using a labeled antibody (Anti-TagAb-label). PLISA (B) depicts a sandwich format in which the peptide probe tagged with a label is replaced by a labeled antibody (Ab-label) specific to the Aβ oligomer. PLISA (C) depicts a sandwich format in which the surface-bound peptide probe is replaced with an antibody specific to the Aβ oligomer (Ab-6E10). PLISA (D) depicts a competitive format in which Aβ oligomer in a biological sample competes with surface-bound Aβ oligomer for a labeled peptide probe. Each of PLISA (A)-(D) can use a solid-phase format (shown here as a bead, in which the bead is passed through an apparatus for detecting the labels).
Different concentrations of Aβ oligomer in solution are subjected to both PLISA and ELISA to determine the sensitivity of each assay, as measured by dose response curves. For the PLISA assay, the peptide probe used is AD317 (SEQ ID NO:41). For the ELSIA, the antibody used is Aβ antibody 6E10 labeled with horse radish peroxidase. […]

[5] = target: T3, Aβ oligomer; experiment: PLISA using PEP-11 peptide probes on Aβ monomer, oligomer and fiber; type: binding
From the text: PEP-11ds is also represented by SEQ ID NO:64, but has a disulfide bridge at the two cysteines.

How did the “fluorescence response to synthetic Aβ oligomer concentration” value [1] turn out when “AD315: Salt bridge at G29H and G33E; PBA and NH2 additions; pyrenated peptide (KLVFFAEDVGSNKHAIIELMK-NH2; not fully specified (N-terminus); also: PBA addition, pyrene label)” was run?
The value was “linear, dose-dependent curve”.

What about the “fluorescent anisotropy (milli-r) as a function of Aβ42 oligomer concentration (nN)” value [2] of the same substance?
The value was “decreases as oligomer concentration increases”.

What about the “binding of peptide probe to bead-bound Aβ42 biotinylated oligomer” value [3] of the same substance?
Its value is “can be used to detect Aβ42 oligomer”.

Which “sensitivity for detecting Aβ oligomer, PLISA vs ELISA (dose response curves)” value [4] does the source give for “AD317: P22, biotin labeled with thrombin site linker, at C-terminus (KLVFFAEDVGSNKHAIIELMKGLVPRGSGK; not fully specified (residue 30, C-terminus); also: biotin label at C-terminus via thrombin site linker, attachment place not given here)” here?
Its value is “more sensitive assay for detecting Aβ oligomer than the ELISA”.

Which “preferential detection/binding of Aβ oligomer as compared to Aβ monomer or fiber” value [5] does the source give for “Pep11-a: consists of SEQ ID NO:64, at a purity of 86% (standard) ({FITC}-[Ahx]CLVFFAEDVGSNKGAIIGLMC[dR][dR]; not fully specified; cysteine pairing not given here)” here?
Its value is “preferentially detect Aβ oligomer”.

With “Pep11-b: consists of SEQ ID NO:64, at a purity of 95% (high) ({FITC}-[Ahx]CLVFFAEDVGSNKGAIIGLMC[dR][dR]; not fully specified; cysteine pairing not given here)” as the substance, how does the “preferential detection/binding of Aβ oligomer as compared to Aβ monomer or fiber” value [5] read?
The value was “preferentially detect Aβ oligomer”.

For “Pep11-ds: represented by SEQ ID NO:64, but has a disulfide bridge at the two cysteines ({FITC}-[Ahx]CLVFFAEDVGSNKGAIIGLMC[dR][dR]; disulfide 2-22; not fully specified)”, which “preferential detection/binding of Aβ oligomer as compared to Aβ monomer or fiber” value [5] is on record?
The value was “preferentially detect Aβ oligomer”.
